Measurements from patent US20130217572A1, “SPECIFIC DELIVERY OF AGROCHEMICALS” (VRIJE UNIVERSITEIT BRUSSEL, priority 2010, published 2013).

Tests used:
potato lectin (Sigma) [1] = target: T1, potato lectin (Sigma) (potato, UniProt Q9S8M0 23-323); test: VHH-coupled Uvitex microcapsules retained on potato lectin-coated wells; 100% surface coverage
T1 construct: Bought glycoprotein, coated on ELISA plates
T1 sequence (looked up): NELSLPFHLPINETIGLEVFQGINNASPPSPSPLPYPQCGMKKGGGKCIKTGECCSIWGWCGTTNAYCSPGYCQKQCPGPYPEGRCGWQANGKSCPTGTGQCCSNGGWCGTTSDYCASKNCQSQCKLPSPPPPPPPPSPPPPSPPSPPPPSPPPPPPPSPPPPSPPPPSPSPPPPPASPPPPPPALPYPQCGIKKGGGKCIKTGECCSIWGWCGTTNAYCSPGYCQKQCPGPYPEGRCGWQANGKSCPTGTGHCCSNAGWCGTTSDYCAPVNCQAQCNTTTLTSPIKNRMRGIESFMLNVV

potato lectin (Sigma) [2] = target: T1, potato lectin (Sigma); test: VHH-coupled Uvitex OB microcapsules retained on potato lectin-coated wells; 4% surface coverage
potato lectin (Sigma) [3] = target: T1, potato lectin (Sigma); test: VHH-coupled lambda-cyhalothrin microcapsules retained on potato lectin-coated wells; 20% surface coverage
potato lectin (Sigma) [4] = target: T1, potato lectin (Sigma); test: VHH-coupled Uvitex OB microcapsules retained on potato lectin-coated wells; 20% surface coverage
potato lectin (Sigma) [5] = target: T1, potato lectin (Sigma); test: VHH-coupled lambda-cyhalothrin microcapsules retained on potato lectin-coated wells; 4% surface coverage
potato lectin (Sigma) [6] = target: T1, potato lectin (Sigma); test: VHH-coupled Uvitex microcapsules retained on potato lectin-coated wells; 4% surface coverage
potato lectin (Sigma) [7] = target: T1, potato lectin (Sigma); test: VHH-coupled lambda-cyhalothrin microcapsules retained on potato lectin-coated wells; 100% surface coverage
potato lectin (Sigma) [8] = target: T1, potato lectin (Sigma); test: VHH-coupled Uvitex microcapsules retained on potato lectin-coated wells; 20% surface coverage
potato lectin (Sigma) [9] = target: T1, potato lectin (Sigma); test: VHH-coupled Uvitex OB microcapsules retained on potato lectin-coated wells; 100% surface coverage

unrelated VHH
surface area of bound microcapsules (potato lectin (Sigma) [1]): 142
area of bound microcapsules (potato lectin (Sigma) [2]): 7.53
counts of bound microcapsules (microcapsules) (potato lectin (Sigma) [3]): 709
area of bound microcapsules (potato lectin (Sigma) [4]): 35.4
counts of bound microcapsules (microcapsules) (potato lectin (Sigma) [5]): 348
surface area of bound microcapsules (potato lectin (Sigma) [6]): 19.2
counts of bound microcapsules (microcapsules) (potato lectin (Sigma) [7]): 828
surface area of bound microcapsules (potato lectin (Sigma) [8]): 43.5
area of bound microcapsules (potato lectin (Sigma) [9]): 16.7
